This assay has as its target T1, complement iC3b on erythrocytes (EAiC3b) (human, UniProt P01024 23-667; P01024 749-1303; P01024 1321-1663, limits assumed).
T1 construct: iC3b is a multi-chain fragment of C3; also called human iC3b
Briefly: fluoresceinated EAiC3b on immobilized protein.

T1 sequence (P01024 23-667 limits assumed, chain 1 of 3): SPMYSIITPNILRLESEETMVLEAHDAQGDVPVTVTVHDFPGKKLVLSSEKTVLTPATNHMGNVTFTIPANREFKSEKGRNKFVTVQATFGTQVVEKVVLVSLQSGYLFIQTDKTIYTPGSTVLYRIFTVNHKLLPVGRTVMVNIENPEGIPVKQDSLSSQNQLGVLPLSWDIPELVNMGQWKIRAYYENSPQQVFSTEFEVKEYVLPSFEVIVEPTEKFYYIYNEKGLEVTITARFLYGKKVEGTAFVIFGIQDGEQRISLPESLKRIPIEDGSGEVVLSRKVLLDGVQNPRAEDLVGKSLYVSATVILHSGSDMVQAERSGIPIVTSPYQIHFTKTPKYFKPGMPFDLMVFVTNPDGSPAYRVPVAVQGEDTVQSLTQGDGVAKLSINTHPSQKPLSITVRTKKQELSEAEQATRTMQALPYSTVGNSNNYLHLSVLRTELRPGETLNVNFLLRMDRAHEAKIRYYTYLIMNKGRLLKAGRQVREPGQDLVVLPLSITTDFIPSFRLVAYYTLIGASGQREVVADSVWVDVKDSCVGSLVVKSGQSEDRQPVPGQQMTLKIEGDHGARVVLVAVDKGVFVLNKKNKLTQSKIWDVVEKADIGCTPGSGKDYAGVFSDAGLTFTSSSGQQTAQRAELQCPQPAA
T1 sequence (P01024 749-1303 limits assumed, chain 2 of 3): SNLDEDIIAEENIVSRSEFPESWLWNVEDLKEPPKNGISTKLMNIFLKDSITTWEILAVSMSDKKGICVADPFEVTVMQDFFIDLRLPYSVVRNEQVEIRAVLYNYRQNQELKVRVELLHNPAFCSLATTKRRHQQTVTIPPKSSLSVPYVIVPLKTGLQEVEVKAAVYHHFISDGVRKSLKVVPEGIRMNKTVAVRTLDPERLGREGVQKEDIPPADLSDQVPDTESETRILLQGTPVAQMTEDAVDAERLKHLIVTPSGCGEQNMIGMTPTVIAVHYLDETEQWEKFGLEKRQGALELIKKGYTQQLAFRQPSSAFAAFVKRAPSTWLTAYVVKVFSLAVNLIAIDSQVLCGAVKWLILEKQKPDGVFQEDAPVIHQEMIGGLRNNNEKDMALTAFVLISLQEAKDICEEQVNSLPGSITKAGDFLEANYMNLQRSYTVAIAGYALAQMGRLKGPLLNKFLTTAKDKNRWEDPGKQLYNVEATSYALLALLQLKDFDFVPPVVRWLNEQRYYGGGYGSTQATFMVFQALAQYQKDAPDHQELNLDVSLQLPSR
T1 sequence (P01024 1321-1663 limits assumed, chain 3 of 3): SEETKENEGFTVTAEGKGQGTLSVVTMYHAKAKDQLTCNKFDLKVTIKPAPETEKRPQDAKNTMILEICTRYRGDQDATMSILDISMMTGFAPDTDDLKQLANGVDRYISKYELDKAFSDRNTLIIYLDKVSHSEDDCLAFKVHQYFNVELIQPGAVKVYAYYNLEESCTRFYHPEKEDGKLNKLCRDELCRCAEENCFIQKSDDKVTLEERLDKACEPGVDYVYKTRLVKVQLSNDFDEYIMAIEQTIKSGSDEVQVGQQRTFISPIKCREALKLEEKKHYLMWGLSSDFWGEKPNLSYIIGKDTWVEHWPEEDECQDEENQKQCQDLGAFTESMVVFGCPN
Experimental: For the inhibition studies, E were preincubated with each recombinant protein or pure peptide in the presence of 2% BSA for 5 minutes at RT and added to wells coated with immobilized protein or peptide without washing, unless otherwise indicated. At the end of the binding reactions, wells were washed, examined briefly by light microscopy then solubilized with 1% SDS-0.2 N NaOH. Fluorescence was quantified (excitatory wavelength, 490 nm, emission wavelength, 510 nm) using a SLM 8000 fluorometer (SLM Instruments, Urbana, Ill.). In experiments where the effects of individual divalent cations were measured, Ca²⁺ and Mg²⁺ were replaced with metal-free buffers or with buffers containing each cation at 1. MM, unless otherwise indicated. The effect of temperature was evaluated in the presence of 1 mM MnCl₂ at 37° C. and at 4° C.

B1: recombinant CD11a A domain (receptor, human, UniProt P20701 153-332, looked up)
chain: GNVDLVFLFDGSMSLQPDEFQKILDFMKDVMKKLSNTSYQFAAVQFSTSYKTEFDFSDYVKRKDPDALLKHVKHMLLLTNTFGAINYVATEVFREELGARPDATKVLIIITDGEATDSGNIDAAKDIIRYIIGIGKHFQTKESQETLHKFASKPASEFVKILDTFEKLKDLFTELQKKIY
notes: domain: A domain; Expressed as a GST fusion in E. coli, used as such or released by thrombin; also called r11aA; rCD11a A-domain
With B1, the binding result was “no binding”.
